From patent US20240076332A1 come the findings set out here.

This experiment has as its target cell surface bound heterodimeric receptor protein comprising a tyrosine kinase FGFR1c and a beta-Klotho protein (UniProt P11362). In words: cell-based or functional assay.
Chain of UniProt P11362 (P11362 22-822, chain 1 of 2): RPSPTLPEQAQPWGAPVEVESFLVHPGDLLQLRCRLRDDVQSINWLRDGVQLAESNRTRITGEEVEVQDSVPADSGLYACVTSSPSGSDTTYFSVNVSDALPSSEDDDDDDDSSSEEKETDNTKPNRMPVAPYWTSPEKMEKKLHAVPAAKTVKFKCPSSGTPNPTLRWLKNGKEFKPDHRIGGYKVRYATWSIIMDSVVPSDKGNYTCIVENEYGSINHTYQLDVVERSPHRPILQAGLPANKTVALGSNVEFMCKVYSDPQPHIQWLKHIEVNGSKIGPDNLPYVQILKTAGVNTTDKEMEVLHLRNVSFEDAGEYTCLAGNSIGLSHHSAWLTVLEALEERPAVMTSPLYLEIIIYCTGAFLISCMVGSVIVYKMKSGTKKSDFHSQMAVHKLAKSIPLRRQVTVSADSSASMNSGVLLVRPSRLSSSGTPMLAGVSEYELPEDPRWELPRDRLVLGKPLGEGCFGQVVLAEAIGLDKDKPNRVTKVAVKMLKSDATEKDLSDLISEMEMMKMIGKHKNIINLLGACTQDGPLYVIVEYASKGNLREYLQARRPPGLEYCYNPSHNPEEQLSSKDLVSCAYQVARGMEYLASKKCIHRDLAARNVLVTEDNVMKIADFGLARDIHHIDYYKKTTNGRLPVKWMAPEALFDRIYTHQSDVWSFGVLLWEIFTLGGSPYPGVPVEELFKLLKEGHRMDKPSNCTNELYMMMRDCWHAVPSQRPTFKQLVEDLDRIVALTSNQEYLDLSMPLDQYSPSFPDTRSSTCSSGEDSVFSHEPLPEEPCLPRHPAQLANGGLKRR
Chain of UniProt P11362 (Q86Z14 whole entry, chain 2 of 2, further chain): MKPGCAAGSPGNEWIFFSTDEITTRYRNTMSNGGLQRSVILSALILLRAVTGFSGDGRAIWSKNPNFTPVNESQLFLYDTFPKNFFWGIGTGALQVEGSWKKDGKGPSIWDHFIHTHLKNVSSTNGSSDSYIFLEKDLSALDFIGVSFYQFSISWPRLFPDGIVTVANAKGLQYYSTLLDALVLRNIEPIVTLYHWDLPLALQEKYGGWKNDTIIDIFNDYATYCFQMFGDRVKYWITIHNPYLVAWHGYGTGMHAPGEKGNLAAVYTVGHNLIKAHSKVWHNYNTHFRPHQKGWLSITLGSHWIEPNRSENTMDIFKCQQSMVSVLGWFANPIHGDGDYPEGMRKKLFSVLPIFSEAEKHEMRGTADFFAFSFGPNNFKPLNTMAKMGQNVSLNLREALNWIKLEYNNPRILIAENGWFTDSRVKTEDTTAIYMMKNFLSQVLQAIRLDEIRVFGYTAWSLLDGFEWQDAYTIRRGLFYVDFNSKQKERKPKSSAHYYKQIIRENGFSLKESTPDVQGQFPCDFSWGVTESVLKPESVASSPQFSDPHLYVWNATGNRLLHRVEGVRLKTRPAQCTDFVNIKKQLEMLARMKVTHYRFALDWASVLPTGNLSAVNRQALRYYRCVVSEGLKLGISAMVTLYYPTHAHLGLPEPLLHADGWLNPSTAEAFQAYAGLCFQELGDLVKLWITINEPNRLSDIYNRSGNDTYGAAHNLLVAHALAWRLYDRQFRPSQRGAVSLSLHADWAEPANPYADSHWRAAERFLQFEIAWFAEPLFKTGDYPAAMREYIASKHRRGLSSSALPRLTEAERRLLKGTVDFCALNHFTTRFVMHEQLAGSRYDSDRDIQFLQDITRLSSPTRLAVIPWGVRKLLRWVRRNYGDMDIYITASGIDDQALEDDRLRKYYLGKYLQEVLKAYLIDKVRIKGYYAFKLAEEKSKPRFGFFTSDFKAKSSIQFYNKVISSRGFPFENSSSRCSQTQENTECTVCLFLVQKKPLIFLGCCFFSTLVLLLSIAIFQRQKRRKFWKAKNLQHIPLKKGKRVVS

Substance “human FGF21 (from UniProt Q9NSA1 29-209) (ligand)” yielded an EC50 of firefly luciferase reporter-gene response (Gal4-Elk-1), HEK293 cells with FGFR1c and optimized synthetic beta-Klotho gene, treated with increasing concentrations of human FGF21 of 0.003 µg/mL; an EC50 of firefly luciferase reporter-gene response, HEK293 cells with FGFR1c and native beta-Klotho gene, freeze, thaw and use format of 0.024 µg/mL; an EC50 of firefly luciferase reporter-gene response, HEK293 cells with FGFR1c and optimized synthetic beta-Klotho gene, freeze, thaw and use format of 0.007 µg/mL; an EC50 of firefly luciferase reporter-gene response, Jurkat cells transfected with the native beta-Klotho gene (Table 1) of 0.172 µg/mL. Also, the EC50 of firefly luciferase reporter-gene response, Jurkat cells with FGFR1c and native beta-Klotho gene, freeze, thaw and use format is 0.17 µg/mL.
